{"source": "patent US20260176343A1", "about": "(UCL BUSINESS, published 2026)", "binders": {"B1": {"name": "AR_TCE-1 (bispecific antibody)", "chain": "QVQLVESGGGVVQPGRSLRLSCAASGFIFSEHNMAWVRQAPGKGLEWVATISDDGRNTYYRDSMRGRFTISRDNSKNTLYLQMNSLRAEDTAVYYCTSHRYNLFDSWGQGTMVTVSSGGGGSGGGGSGGGGSDIQMTQSPSSLSASVGDRVTITCKASQNIDRYLNWYQQKPGKAPKRLIYNTNKLQTGVPSRFSGSGSGTEFTLTISSLQPEDFATYYCLQYNSLPLTFGQGTKLEIKSGGGGSIEPDSESQGGGGSQVQLVQSGAEVKKPGSSVKVSCKASGYTFTRYTMHWVRQAPGQGLEWMGYINPSRGYTNYNQKFKDRVTITADKSTSTAYMELSSLRSEDTAVYYCARYYDDHYCLDYWGQGTMVTVSSVEGGSGGSGGSGGSGGVDDIQMTQSPSSLSASVGDRVTITCSASSSVSYMNWYQQKPGKAPKRLIYDTSKLASGVPSRFSGSGSGTEFTLTISSLQPEDFATYYCQQWSSNPFTFGQGTKVEIKHHHHHH"}, "B2": {"name": "AR_TCE-3 (bispecific antibody)", "chain": "B1 chain with E251L, S252E, Q253E"}, "B3": {"name": "NVG-111 (bispecific antibody)", "chain": "QVQLVESGGGVVQPGRSLRLSCAASGFIFSEHNMAWVRQAPGKGLEWVATISDDGRNTYYRDSMRGRFTISRDNSKNTLYLQMNSLRAEDTAVYYCTSHRYNLFDSWGQGTMVTVSSGGGGSGGGGSGGGGSDIQMTQSPSSLSASVGDRVTITCKASQNIDRYLNWYQQKPGKAPKRLIYNTNKLQTGVPSRFSGSGSGTEFTLTISSLQPEDFATYYCLQYNSLPLTFGQGTKLEIKSGSGGGGSQVQLVQSGAEVKKPGSSVKVSCKASGYTFTRYTMHWVRQAPGQGLEWMGYINPSRGYTNYNQKFKDRVTITADKSTSTAYMELSSLRSEDTAVYYCARYYDDHYCLDYWGQGTMVTVSSVEGGSGGSGGSGGSGGVDDIQMTQSPSSLSASVGDRVTITCSASSSVSYMNWYQQKPGKAPKRLIYDTSKLASGVPSRFSGSGSGTEFTLTISSLQPEDFATYYCQQWSSNPFTFGQGTKVEIKHHHHHH"}}, "note": "Where a chain is given by its changes, count along the chain named.", "data": [{"target": "ROR1 on Jeko-1 cells (UniProt Q01973 30-937, limits assumed)", "assay": "cell-based or functional assay", "units": {"maximum target cell death, long-term (120 h) killing assay, 1 µg/mL, 1:10 effector to target ratio": "%"}, "values": [{"binder": "B1", "maximum target cell death, long-term (120 h) killing assay, 1 µg/mL, 1:10 effector to target ratio": 58.7}, {"binder": "B2", "maximum target cell death, long-term (120 h) killing assay, 1 µg/mL, 1:10 effector to target ratio": 55.7}, {"binder": "B3", "maximum target cell death, long-term (120 h) killing assay, 1 µg/mL, 1:10 effector to target ratio": 60.5}]}]}
